Test results taken from PMC6937246 (2019).

B1: VASH1-SVBP complex, VASH1 L226A (complex)
chain 1: not shown
chain 2: MDPPARKEKTKVKESVSRVEKAKQKSAQQELKQRQRAEIYALNRVMTELEQQQFDEFCKQMQPPGE
B2: VASH1^44–315-SVBP^1–66 heterodimer (complex)
chain 1: not shown
chain 2: B1 chain 2

What was measured:
purified tubulin dimer [1] = test: SPR; VASH1 L226A/C169S
purified tubulin dimer [2] = test: SPR

Binder	Kd (purified tubulin dimer [1])	Kd (purified tubulin dimer [2])
B1	2100 nM	
B2		320 nM
